Entries after “also recorded” stand apart in the source; their conditions may differ.
Experiments:
[1] = system: synuclein mRNA; assay: Synuclein mRNA (qPCR) in IL-4 treated line 26/synuclein null microglia; assay type: cell-based, mouse
Method: (§1) FIG. 12: Microarray analysis of microglia isolated from three human donors were stimulated with IL-4 for 24 hours and microarray experiment performed and results were confirmed by qPCR. qPCR was also performed on microglia isolated from IL-4 treated line 26/synuclein null pups.
(§2) Human microglia were treated with IL-4 and synuclein transcript levels were measured by microarray and qPCR. Following IL-4 treatment synuclein levels were decreased by 50% in the three donors tested (FIG. 12). […] Microglia from synuclein genomic mice were treated with IL-4 for 24 hours, and while synuclein mRNA levels were decreased, protein levels were unaffected. Synuclein is turned over slowly, therefore 24 hours maybe too soon to see affects. To assess this microglia were stimulated with IL-4 for 48 hr at which time a 50% reduction in synuclein protein levels was observed. […] This may point to a direct effect of IL-4 signaling on the synuclein promoter.

[2] = system: peripheral macrophages; assay: Phagocytic activity screening assay, peripheral macrophages; assay type: cell-based
Method: (§3) The components of a screening assay include cells with phagocytic activity, a test agent being screened and an entity that can be phagocytosed. Such an entity can be inert particles, such as latex beads, preferably of size 4-10 microns. The entity can also be apoptotic cells, such as Jurkat cells). Cells and inert entities are phagocytosed by different mechanisms, the former being receptor dependent. Usually the cells are contacted with the test agent first and incubated for a period (e.g., 1-48 hr) before adding the entity to be phagocytosis. Phagocytosis can be followed by light microscopy or flow cytometry among other methods detecting uptake of the entity being phagocytosed into the phagocytic cell. Methods for detection of phagocytosis can include any fluorescent based platform (e.g., flow cytometry, microscopy, array scan, or a Tr-fret, fluorescent plate reader) enzymatic, or colorimetric readout.
(§4) The screening assay can be performed on different types of phagocytic cells in parallel or sequentially. Some agents stimulate phagocytic activity in all or multiple cell types. Other agents may stimulate phagocytic activity in some cells type but not all.

[3] = system: SNARE complex; assay: SNARE complex components in lysates of IL-4 treated microglia; assay type: cell-based, mouse; details: IL-4 24 hr; wild type and synuclein OE cells
Method: To determine if IL-4 worked in part by altering SNARE or vesicle movement microglia from synuclein genomic mice were treated with IL-4 for 24 hr and lysates were probed for components of the SNARE complex. […] After addition of beads we saw induction of SNARE complexes and these were enhanced following IL-4 treatment.

[4] = system: microglial cells; assay: Phagocytic activity screening assay, microglial cells; assay type: cell-based
Method: as §3, §4

[5] = system: synuclein protein; assay: Synuclein protein levels in IL-4 treated microglia from synuclein genomic mice; assay type: cell-based, mouse
Method: as §2

[6] = system: H4 neuronal cells; assay: Phagocytic activity screening assay, H4 neuronal cells; assay type: cell-based, human; details: H4 neuronal cells (lack an IL-4 receptor)
From the text: The screening and diagnostic assays employ cells with phagocytic activity, sometimes referred to as phagocytic cells. The cells can be human, or other mammalian, particular rodent or mouse. The cells can be obtained from a subject with synucleinopathic disease (usually a human) or a transgenic animal model of disease (e.g., a mouse). The cells can also be a cell line transformed to express an alpha synuclein gene. The cells include microglial cells or peripheral macrophages or polymorphonuclear cells or other phagocytic cells. Microglia can be obtained by biopsy or differentiating or trans-differentiation of embryonic stems cells, bone marrow, induced pluripotent or other stem or pluripotent cell sources from a subject or transgenic animal model. Such phagocytic cells have higher intracellular levels of alpha synuclein that control cells from an undiseased individual. […]
The components of a screening assay include cells with phagocytic activity, a test agent being screened and an entity that can be phagocytosed. […] Methods for detection of phagocytosis can include any fluorescent based platform (e.g., flow cytometry, microscopy, array scan, or a Tr-fret, fluorescent plate reader) enzymatic, or colorimetric readout. […]

[7] = system: synuclein mRNA; assay: Synuclein transcript levels in IL-4 treated human microglia (microarray, qPCR); assay type: cell-based; details: IL-4 24 hours; microglia from three human donors
Method: as §1, §2

[8] = system: synuclein overexpressing microglia; assay: Bead phagocytosis (phagocytic index) of IL-4 treated microglia from synuclein genomic lines 3, 26, 422; assay type: cell-based, mouse; details: IL-4 24 hours, then beads 90 minutes
Method: FIG. 13: Wild type or synuclein overexpressing microglia isolated from line 3, 26, or 422 littermate pups cells were treated for 24 hours with IL-4 and the fed beads for 90 minutes and phagocytic index determined.
To investigate the role of endogenous synuclein on microglia function, we utilized a transgenic mouse model in which wild type or the E46K mutated form of human synuclein was overexpressed from a human bacterial artificial chromosome (bac). The bac construct contained the synuclein promoter and upstream sequences (45 kbp), as well as downstream 3′ sequences ([…]). Three animal lines of interest were identified; line 422 expresses wild type synuclein and two additional lines, line 26 and line 3, express the mutant E46K form. Altered microglia function associated with over expression of human synuclein was assessed in cells isolated from line 26 P1-P3 pups due in part to the high synuclein expression observed in this line. […] Significant overexpression of human synuclein in the murine microglia allowed us to assess the consequence of elevated synuclein levels on microglia function. […] Although the requirement for receptor engagement differs, both targets require activation of intracellular signaling, actin rearrangement, and mobilization of membrane to the phagocytic cup. […]

B1: IL-4: interleukin IL-4 (Swiss Prot P05112), cytokine used to treat microglia (protein, UniProt P05112 25-153, looked up)
Interleukin-4: HKCDITLQEIIKTLNSLTEQKTLCTELTVTDIFAASKNTTEKETFCRAATVLRQFYSHHEKDTRCLGATAQQFHRHKQLIRFLKRLDRNLWGLAGLNSCPVKEANQSTLENFLERLKTIMREKYSKCSS
For B1, which “reduction in synuclein mRNA levels” value ([1]; IL-4 treated line 26/synuclein null pup microglia, qPCR) is on record?
The value was 50%.

What about the “synuclein mRNA levels” value ([1]; line 26/synuclein null genomic microglia, IL-4) of the same molecule?
The value was “reduced synuclein mRNA levels”.

And the stimulating phagocytic activity [2]?
Its stimulating phagocytic activity is “effective”.

And the “SNARE complex components in lysates” value [3]?
Its value is “increased monomer SNAP23 Syntaxin4, and SNAP23 snare complex”.

And the stimulating phagocytic activity [4]?
Its stimulating phagocytic activity is “effective”.

What about the synuclein protein levels ([5]; IL-4 for 24 hours) of the same molecule?
Its synuclein protein levels is “unaffected; also recorded: did not decrease synuclein protein”.

And the “reduction in synuclein protein levels” value ([5]; IL-4 for 48 hr)?
The value was 50%.

And the stimulating phagocytic activity [6]?
Its stimulating phagocytic activity is “not in H4 neuronal cells”.

What about the “reduction in synuclein mRNA levels” value [7] of the same molecule?
Its value is 50%.

What about the “phagocytosis (phagocytic index)” value [8] of the same molecule?
Its value is “rescue the phagocytic defect”.

What about the “phagocytosis (phagocytic index)” value ([8]; listed as 11-4) of the same molecule?
Its value is “restored phagocytosis”.
